The results in this text go back to article PMC8384158.

Among the targets are CCT2; CCT5; CCT6A; ERP29; GANAB; HSP90AB1; HSPA2; HSPA9; PDIA4; PSMB6; PSMD2; RPN2; SERPINH1; TCP1; UBA1; CCT3; UCHL1.
Assay in all cases: TAP pull-down interactome analysis (LC-MS/MS)
Holding throughout (conditions): MCF-7 cells; read off a plot

Regarding “TAP–Bag-1S (from UniProt Q99933-4) I103K”, the other: log2 relative change in the experiment with CCT2 is -0.82 log2; with CCT5 it was -1.5 log2; in the experiment with CCT6A it was -1.6 log2; in the experiment with ERP29, -2.3 log2; with GANAB, -0.47 log2; with HSP90AB1 it was -1.2 log2. Moreover, the other: log2 relative change is 0.7 log2 with HSPA2; -0.32 log2 with HSPA9; -0.8 log2 with PDIA4; -0.9 log2 with PSMB6; -2 log2 with PSMD2; -1.9 log2 with RPN2. In addition, the other: log2 relative change in the experiment with SERPINH1 was -0.85 log2; in the experiment with TCP1, -1.7 log2; with UBA1 it was -0.2 log2.
Regarding “TAP–Bag-1S (from UniProt Q99933-4) R161D”, the other: log2 relative change with CCT2 was -1.6 log2; in the experiment with CCT3, -1.4 log2; with CCT5, 2 log2; with GANAB it was -1.8 log2; with HSP90AB1, -1.9 log2; with HSPA9 it was -0.32 log2. Moreover, the other: log2 relative change with PDIA4 was -0.7 log2; with PSMB6, -2.3 log2; with PSMD2, -2.1 log2; in the experiment with SERPINH1, -1.3 log2; with TCP1, -0.52 log2; in the experiment with UBA1, -2 log2.
On to “TAP–Bag-1S (from UniProt Q99933-4) R193D”, for which the other: log2 relative change was -0.05 log2 with CCT2; 1 log2 with CCT3; -0.45 log2 in the experiment with CCT5; 1.5 log2 in the experiment with ERP29; -0.15 log2 with GANAB; -0.65 log2 with HSP90AB1. Besides, the other: log2 relative change with HSPA2 was 0.77 log2; in the experiment with HSPA9 it was -0.07 log2; in the experiment with PDIA4, -0.65 log2; with PSMB6, -0.85 log2; with PSMD2 it was -1.1 log2; in the experiment with RPN2 it was -1.5 log2. The other: log2 relative change is -0.12 log2 with SERPINH1, 0.5 log2 with TCP1, 0.37 log2 with UBA1 and -0.77 log2 with UCHL1.
Regarding “TAP–Bag-1S (from UniProt Q99933-4) R162E”, the other: log2 relative change was -1.5 log2 with CCT2; -1.2 log2 in the experiment with CCT3; -0.35 log2 with CCT5; -2 log2 in the experiment with CCT6A; -0.52 log2 in the experiment with GANAB; -1.7 log2 in the experiment with HSP90AB1. The other: log2 relative change with HSPA9 is -1.7 log2; in the experiment with PDIA4 it was -1.8 log2; in the experiment with PSMB6 it was -2.3 log2; in the experiment with RPN2 it was -2.1 log2; in the experiment with SERPINH1, -1.1 log2; in the experiment with TCP1 it was -1.9 log2. In the experiment with UBA1, the other: log2 relative change is -0.47 log2.
